In patent publication US20220135687A1 (NANJING LEGEND BIOTECH, published 2022):
Where two headings read alike, the source gives them in different places.

How the values were obtained:
[1] = target: T1, His-tagged PD-L1 ECD protein (ACROBiosystems) (human, UniProt Q9NZQ7 19-238); experiment: SPR, supernatant IgG captured, PD-L1-His analyte
T1 construct: Bought protein; also called PD-L1-His; PD-L1/His; not shown: His tag

[2] = target: T2, human PD-L1 expressed on CHO-K1 cells (Genscript, Cat #M00543) (human, UniProt Q9NZQ7 19-290); experiment: FACS, CHO-K1/human PD-L1 cells
T2 construct: also called PD-L1 cell line
Description: PD-L1 stable cell line binding activity assessment of 12 mouse mAbs was carried out using FACS. CHO-K1 cells expressing human PD-L1 (Genscript, Cat #M00543) were dissociated from adherent culture flasks and mixed with varying concentrations of antibodies. The antibody and cells were incubated for 30 minutes at room temperature, washed three times with FACS buffer (PBS containing 1% BSA). PE-labeled goat anti-mouse IgG (minimal x-reactivity) secondary antibody (BioLegend, Cat #405307) was added and incubated at room temperature for 15 minutes. Cells were washed again with FACS buffer and analyzed by FACSCalibur (BD Bioscience, San Jose, Calif.) and Flowjo software. Data were analyzed with Prism 6 (GraphPad Software, San Diego, Calif.) using non-linear regression, and EC₅₀ values were calculated (FIGS. 2A-2L and Table 3).

[3] = target: T2, human PD-L1 expressed on CHO-K1 cells …; experiment: FACS competition vs biotin-PD-1-Fc on CHO-K1/human PD-L1 cells
Description: A series of diluted mouse mAbs (concentration starting from 900 nM, 3 fold dilution, 50 μl per well) were added afterwards. The mixture was incubated at 4° C. for 30 minutes, washed twice with wash buffer, followed by the addition of PEcy5/streptavidin (1 μg/ml, 150 μl/well). The plates were again incubated at 4° C. for 30 minutes before the cells in each well were analyzed by FACSCalibur (BD Bioscience, San Jose, Calif.) and Flowjo software.

[4] = target: T1, His-tagged PD-L1 ECD protein …; experiment: SPR, supernatant IgG captured, PD-L1-His analyte; remark: listed apart in the source

T1 sequence (Q9NZQ7 19-238): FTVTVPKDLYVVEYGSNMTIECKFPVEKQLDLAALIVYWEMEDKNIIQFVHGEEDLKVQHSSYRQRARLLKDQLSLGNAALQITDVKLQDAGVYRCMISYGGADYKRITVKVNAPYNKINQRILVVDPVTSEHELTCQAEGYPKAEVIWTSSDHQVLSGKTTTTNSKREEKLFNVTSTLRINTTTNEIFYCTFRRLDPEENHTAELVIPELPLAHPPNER
T2 sequence (Q9NZQ7 19-290, one chain of several): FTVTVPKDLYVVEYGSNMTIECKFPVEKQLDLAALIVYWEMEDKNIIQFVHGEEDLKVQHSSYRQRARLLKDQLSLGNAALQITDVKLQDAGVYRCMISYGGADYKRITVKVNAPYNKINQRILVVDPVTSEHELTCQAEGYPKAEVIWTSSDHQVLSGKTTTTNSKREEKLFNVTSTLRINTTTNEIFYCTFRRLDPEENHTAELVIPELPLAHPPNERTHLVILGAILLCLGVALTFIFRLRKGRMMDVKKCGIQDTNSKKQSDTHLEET

| Binder | Kd [1] [nM] | koff [1] [s⁻¹] | kon [1] [M⁻¹ s⁻¹] | EC50 [2] [nM] | Top (best-fit value) [2] | IC50 [3] [nM] | also measured |
| --- | --- | --- | --- | --- | --- | --- | --- |
| 29A8_VH-VL.M1 (antibody, human IgG1, kappa, N297A, V domains shown, human IgG1 effector-less Fc, kappa) VH: DVQLQGSGPGLVKPSQSLSLTCTVTGYSITSDFAWDWIRQFPGNKLEWMGHIRFSGTTSYNPSLKSRISITRDTSKNQFFLQLNSVTSEDTATYYCARSTLITKGFFDYWGQGTTLTVSS VL: DIVMTQSHKFMSTSVGGRVSITCRASQDVSPAVAWYQQKPGQSPKLLIYWASTRHTGVPDRFTGSGSGTDFTLTISSVQTEDLALYYCQQHYSTPWTFGGGTKLEIKR | 0.29 | 0.00015 | 530000 |  |  |  |  |
| 29A8_VH2-VL1.M1 (antibody, human IgG1, kappa, N297A, V domains shown, Humanized, hIgG1 effector-less Fc, kappa; see recheck on K24R in the .M1 light chain) VH: EVQLQESGPGLVKPSETLSLTCTVSGYSITSDFAWDWIRQFPGKGLEWMGHIRFSGTTSYNPSLKSRITISVDTSKNQFSLKLSSVTAADTAVYYCARSTLITKGFFDYWGQGTLVTVSS VL: DIQMTQSPSSLSASVGDRVTITCRASQDVSPAVAWYQQKPGKAPKLLIYWASTRHTGVPSRFSGSGSGTDFTLTISSLQPEDFATYYCQQHYSTPWTFGQGTKVEIKR |  |  |  |  |  |  | Kd [4]: 1.3 nM; koff [4]: 0.00061 s⁻¹; kon [4]: 470000 M⁻¹ s⁻¹ |
| 29A8_VH3-VL1.M1 (antibody, human IgG1, kappa, N297A, V domains shown, Humanized, hIgG1 effector-less Fc, kappa; see recheck on K24R in the .M1 light chain) VH: EVQLQESGPGLVKPSETLSLTCTVSGYSITSDFAWDWIRQFPGKGLEWMGHIRFSGTTSYNPSLKSRITISVDTSKNQFFLKLSSVTAADTATYYCARSTLITKGFFDYWGQGTLLTVSS VL: DIQMTQSPSSLSASVGDRVTITCRASQDVSPAVAWYQQKPGKAPKLLIYWASTRHTGVPSRFSGSGSGTDFTLTISSLQPEDFATYYCQQHYSTPWTFGQGTKVEIKR |  |  |  |  |  |  | Kd [4]: 1.1 nM; koff [4]: 0.00051 s⁻¹; kon [4]: 480000 M⁻¹ s⁻¹ |
| 1H1G4D9 (antibody, V domains shown, Mouse mAb from hybridoma culture) VH: EGQLQQSGAELVKPGASVILSCTASGFNIKDTYIHWLNQRPEQGLEWIGRIEPANGNTKYDPTFQGKATITADTSSNTAYLQLTSLTSEDTAVYYCSRGGIYYYGSHWYFDVWGAGTLVTVSS VL: DVLMTQTPLSLPVSLGDQASISCRSSQNIVYSDGDTYLEWYLQKPGQSPKLLIFKVSNRFSGVPDRFSGSGSGTDFTLKISRVEAEDLGVYYCFQGSHVPFTFGSGTKLEIK |  |  |  | 12.3 | 1760 | 11.8 |  |
| 30A6B2D9 (antibody, V domains shown, Mouse mAb from hybridoma culture) VH: EGQLQQSGAGLVKPGASVNLSCTASGFNIKDTYIHWMKQRPEQGLEWIGRIAPTNGNTKYDPTFQGKATITADSSSNTAYLQVSSLTSEDTAVYYCSRGGIYYYGSHWYFDVWGAGTTVTVSS VL: SVLMTQTPLSLPVSLGDQASISCRSSQNIVYSDGDTYLEWYLQKPGQSPKLLIFKVSNRFFGVPDRFSGSGSGTDFTLKINRVEAEDLGVYYCFQGSHVPFTFGSGTKLEIK |  |  |  | 11.1 | 1640 | 8.35 |  |
| 25G1F9F8 (antibody, V domains shown, Mouse mAb from hybridoma culture) VH: EGQLQQSGAELVKPGASVNLSCTASGFNIKDTYIHWVKQRPDQGLEWIGRIAPTNGNAKFHPTFQGKATITADTSSNTAYLQLSSLTSEDTAVYYCTRGGIYYYGTHWYFDVWGAGTTVTVSS VL: DVLMNQTPLSLPVSLGDQASISCRSSQNIVYSDGNTYLEWYLQKPGQSPKLLIFQVSNRFSGVPDRFSGSGSGTDFTLKISRVEAEDLGFYYCFQGSHVPFTFGSGTKLEIK |  |  |  | 18.1 | 1750 | 13.8 |  |
| 21D1F4D4 (antibody, V domains shown, Mouse mAb from hybridoma culture) VH: QVQLQQPGAEVVRPGASVKLSCKASGYTFTNYWISWVKQRPGQGLEWIGNIYPSDSYTNYNQNFKDKATLTVDKSSSTAYMQLSSPTSEDSAVYYCTTGIITVIATRDDYWGQGTTLTVSS VL: QIVLTQSPAIMSASPGEKVTLTCSASSSVSSSYLYWYQQKPGSSPKLWIYSTSNLASGVPARFSGSGSGTSYSLTVSSMEAEDAASYFCHQWSSYPFTFGSGTKLEIK |  |  |  | 9.37 | 1960 | 3.79 |  |
| 25B6E5D8 (antibody, V domains shown, Mouse mAb from hybridoma culture) VH: QFQLQQSGAELVRPGSSVKISCKASGYEFSSNWMNWVKQRPGQSLEWIGQIWPGDGDTNYNGKFRGKATLTSDKSSSTAYMQLNSLTSEDSAVYFCARGRASFYFDYWGQGTALTVSS VL: DIVLTQSPASLAVSLGQRATISCRASESVDDYGNSFMHWYQQKPGQPPKLLIYRASNLESGIPVRFSGSGSRTDFTLTINPVEADDVATYYCQQSNEDPHTFGGGTKLEIK |  |  |  | 4.5 | 1410 |  |  |

Further lines, with some results ahead:

| Kd [1] [nM] | koff [1] [s⁻¹] | kon [1] [M⁻¹ s⁻¹] | EC50 [2] [nM] | Top (best-fit value) [2] | IC50 [3] [nM] | Binder | also measured |
| --- | --- | --- | --- | --- | --- | --- | --- |
|  |  |  | 6.12 | 1720 | 4.43 | 30A7B5D9 (antibody, V domains shown, Mouse mAb from hybridoma culture) VH: KVQLQQSGAELVKPGTSVKLSCKASGYTFTEYIIYWIKQRSGQGLEWIGWFYPGTGSIKYNEKFKDKATLTADKSSSTVFMELSRLTSEDSAVYFCARHEEGNLWFAYWGQGTLVTVSA VL: QIVLTQSPALMSASPGERVTMTCSASSDVSYMYWYQQKPRSSPKPWIYLTSNLASGVPARFSGSGSGTSYSLTISSMEAEDAATYYCQQWTGNPLTFGAGTKLELK |  |
| 0.76 | 0.0002 | 260000 |  |  |  | 53C1_VH-VL.M1 (antibody, human IgG1, kappa, N297A, V domains shown, Chimeric mutant, VL K24R in the entry; human IgG1 effector-less Fc, kappa) VH: QVQLQQSGNELARPGASVRLSCKASGYIFTGYGITWVRQRPGQGLEWIGEIFPRRVNTYYSEKFKGRATLTADISSSTAYMELRSLTSEDSAVYFCARDYDPYFALDYWGQGTSVTVSS VL: DIVMTQSHKFMSTSVGDRVSITCRASQDVSTAVDWYQQKPGQSPKLLIYSASYRYTGVPDRFTGSGSGTAFTFTISGEQAEDLAVYYCQQHYSIPFTFGGGTKLEIKR |  |
| 0.94 | 0.00018 | 200000 |  |  |  | 53C1_VH.M2-VL.M1 (antibody, human IgG1, kappa, N297A, V domains shown, Chimeric mutant (VH N57A, VL K24R in the entries); human IgG1 effector-less Fc, kappa) VH: QVQLQQSGNELARPGASVRLSCKASGYIFTGYGITWVRQRPGQGLEWIGEIFPRRVATYYSEKFKGRATLTADISSSTAYMELRSLTSEDSAVYFCARDYDPYFALDYWGQGTSVTVSS VL: DIVMTQSHKFMSTSVGDRVSITCRASQDVSTAVDWYQQKPGQSPKLLIYSASYRYTGVPDRFTGSGSGTAFTFTISGEQAEDLAVYYCQQHYSIPFTFGGGTKLEIKR |  |
| 0.87 | 0.00021 | 240000 |  |  |  | 53C1_VH.M1-VL (antibody, human IgG1, kappa, N297A, V domains shown, Chimeric mutant, VH N57S in the entry; human IgG1 effector-less Fc, kappa) VH: QVQLQQSGNELARPGASVRLSCKASGYIFTGYGITWVRQRPGQGLEWIGEIFPRRVSTYYSEKFKGRATLTADISSSTAYMELRSLTSEDSAVYFCARDYDPYFALDYWGQGTSVTVSS VL: DIVMTQSHKFMSTSVGDRVSITCKASQDVSTAVDWYQQKPGQSPKLLIYSASYRYTGVPDRFTGSGSGTAFTFTISGEQAEDLAVYYCQQHYSIPFTFGGGTKLEIKR |  |
| 0.81 | 0.00016 | 200000 |  |  |  | 53C1_VH.M2-VL (antibody, human IgG1, kappa, N297A, V domains shown, Chimeric mutant, VH N57A in the entry; human IgG1 effector-less Fc, kappa) VH: QVQLQQSGNELARPGASVRLSCKASGYIFTGYGITWVRQRPGQGLEWIGEIFPRRVATYYSEKFKGRATLTADISSSTAYMELRSLTSEDSAVYFCARDYDPYFALDYWGQGTSVTVSS VL: DIVMTQSHKFMSTSVGDRVSITCKASQDVSTAVDWYQQKPGQSPKLLIYSASYRYTGVPDRFTGSGSGTAFTFTISGEQAEDLAVYYCQQHYSIPFTFGGGTKLEIKR |  |
| 0.56 | 0.00014 | 260000 |  |  |  | 53C1_VH.M3-VL.M1 (antibody, human IgG1, kappa, N297A, V domains shown, Chimeric mutant (VH N57Q, VL K24R in the entries); human IgG1 effector-less Fc, kappa) VH: QVQLQQSGNELARPGASVRLSCKASGYIFTGYGITWVRQRPGQGLEWIGEIFPRRVQTYYSEKFKGRATLTADISSSTAYMELRSLTSEDSAVYFCARDYDPYFALDYWGQGTSVTVSS VL: DIVMTQSHKFMSTSVGDRVSITCRASQDVSTAVDWYQQKPGQSPKLLIYSASYRYTGVPDRFTGSGSGTAFTFTISGEQAEDLAVYYCQQHYSIPFTFGGGTKLEIKR |  |
| 0.53 | 0.00014 | 260000 |  |  |  | 53C1_VH.M3-VL (antibody, human IgG1, kappa, N297A, V domains shown, Chimeric mutant, VH N57Q in the entry; human IgG1 effector-less Fc, kappa) VH: QVQLQQSGNELARPGASVRLSCKASGYIFTGYGITWVRQRPGQGLEWIGEIFPRRVQTYYSEKFKGRATLTADISSSTAYMELRSLTSEDSAVYFCARDYDPYFALDYWGQGTSVTVSS VL: DIVMTQSHKFMSTSVGDRVSITCKASQDVSTAVDWYQQKPGQSPKLLIYSASYRYTGVPDRFTGSGSGTAFTFTISGEQAEDLAVYYCQQHYSIPFTFGGGTKLEIKR |  |
| 0.86 | 0.0002 | 240000 |  |  |  | 53C1_VH.M1-VL.M1 (antibody, human IgG1, kappa, N297A, V domains shown, Chimeric mutant (VH N57S, VL K24R in the entries); human IgG1 effector-less Fc, kappa) VH: QVQLQQSGNELARPGASVRLSCKASGYIFTGYGITWVRQRPGQGLEWIGEIFPRRVSTYYSEKFKGRATLTADISSSTAYMELRSLTSEDSAVYFCARDYDPYFALDYWGQGTSVTVSS VL: DIVMTQSHKFMSTSVGDRVSITCRASQDVSTAVDWYQQKPGQSPKLLIYSASYRYTGVPDRFTGSGSGTAFTFTISGEQAEDLAVYYCQQHYSIPFTFGGGTKLEIKR |  |
|  |  |  | 3.29 | 1780 | 2.89 | 42G2D7C3 (antibody, V domains shown, Mouse mAb from hybridoma culture) VH: DVQLLESGPGLVKPSQSLSLTCSVTGYSITSGYYWNWIRQFPGNNLEWMGSINYDGSNDYNPSLQDRISITRDTSKNQFFLKLNSVTTEDTATYYCARRLDYWGQGTTLIVSS VL: QIVLTQSPAIMSASPGEKVTISCSASSFINYMYWYQQKPGSSPKPWILRTSTLASGVPARFSGSGSGTSYSLTISSMEAEDAATYYCQQYHSYPLTFGAGTKLELK |  |
